Assay results reported in patent publication US20050019345A1 (published 2005).

Assays:
BSA (bovine) = BSA (bovine) (UniProt P02769); assay: enzyme-linked binding assay (ELISA format), non-conjugated HRPO on immobilized BSA
human laminin = human laminin (human); assay: enzyme-linked binding assay (ELISA format), non-conjugated HRPO on immobilized matrix protein
Experimental: (§1) After purification and labeling, it was subjected to an enzyme-linked binding assay with the Immobilized human matrix proteins, collagen type 1, fibronectin and laminin.
(§2) Peroxidase-labeled Cpa-maltose binding protein fusion and recombinant purified maltose-binding protein (for control of specific binding of the bacteria) were added to the wells for 2 h at room temperature. Non-conjugated peroxidase at a 1:300 dilution in PBS-T was used as a negative control. […] All assays were repeated on at least three independent occasions.

human collagen type I = molecular target: T1, human collagen type I (human, UniProt P02452 162-1218; P08123 80-1119, limits assumed); assay: as above
T1 construct: Bought (Gibco BRL), immobilized on plates; also called type I collagen; collagen type 1
T1 sequence (P02452 162-1218 limits assumed, chain 1 of 2): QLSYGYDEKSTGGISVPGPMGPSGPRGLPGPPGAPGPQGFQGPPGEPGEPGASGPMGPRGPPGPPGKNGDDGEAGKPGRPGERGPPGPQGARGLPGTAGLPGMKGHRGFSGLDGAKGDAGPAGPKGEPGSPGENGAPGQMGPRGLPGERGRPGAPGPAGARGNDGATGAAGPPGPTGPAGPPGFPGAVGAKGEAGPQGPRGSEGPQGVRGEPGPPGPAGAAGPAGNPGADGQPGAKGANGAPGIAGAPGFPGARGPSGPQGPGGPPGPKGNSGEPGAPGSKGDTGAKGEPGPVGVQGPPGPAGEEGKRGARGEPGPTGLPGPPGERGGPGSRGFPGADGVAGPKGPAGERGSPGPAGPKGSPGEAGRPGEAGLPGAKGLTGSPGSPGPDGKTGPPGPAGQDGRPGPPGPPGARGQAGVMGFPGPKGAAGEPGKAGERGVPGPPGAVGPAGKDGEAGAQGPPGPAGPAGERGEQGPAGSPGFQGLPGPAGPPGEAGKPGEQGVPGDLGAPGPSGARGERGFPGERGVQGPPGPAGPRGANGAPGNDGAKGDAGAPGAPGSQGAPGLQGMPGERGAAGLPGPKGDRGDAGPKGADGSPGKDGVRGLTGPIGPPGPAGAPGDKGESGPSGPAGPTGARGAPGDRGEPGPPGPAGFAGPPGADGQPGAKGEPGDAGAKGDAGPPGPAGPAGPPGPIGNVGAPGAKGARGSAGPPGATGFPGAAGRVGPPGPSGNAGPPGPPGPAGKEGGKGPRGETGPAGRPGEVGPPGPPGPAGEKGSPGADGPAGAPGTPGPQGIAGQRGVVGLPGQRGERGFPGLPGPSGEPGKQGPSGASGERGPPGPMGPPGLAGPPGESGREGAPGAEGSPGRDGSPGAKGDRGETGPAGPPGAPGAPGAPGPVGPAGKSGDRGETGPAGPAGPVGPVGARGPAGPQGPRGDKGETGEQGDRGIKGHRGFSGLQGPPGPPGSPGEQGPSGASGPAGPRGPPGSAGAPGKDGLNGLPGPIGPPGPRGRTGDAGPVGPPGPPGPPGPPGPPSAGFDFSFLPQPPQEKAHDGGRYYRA
T1 sequence (P08123 80-1119 limits assumed, chain 2 of 2): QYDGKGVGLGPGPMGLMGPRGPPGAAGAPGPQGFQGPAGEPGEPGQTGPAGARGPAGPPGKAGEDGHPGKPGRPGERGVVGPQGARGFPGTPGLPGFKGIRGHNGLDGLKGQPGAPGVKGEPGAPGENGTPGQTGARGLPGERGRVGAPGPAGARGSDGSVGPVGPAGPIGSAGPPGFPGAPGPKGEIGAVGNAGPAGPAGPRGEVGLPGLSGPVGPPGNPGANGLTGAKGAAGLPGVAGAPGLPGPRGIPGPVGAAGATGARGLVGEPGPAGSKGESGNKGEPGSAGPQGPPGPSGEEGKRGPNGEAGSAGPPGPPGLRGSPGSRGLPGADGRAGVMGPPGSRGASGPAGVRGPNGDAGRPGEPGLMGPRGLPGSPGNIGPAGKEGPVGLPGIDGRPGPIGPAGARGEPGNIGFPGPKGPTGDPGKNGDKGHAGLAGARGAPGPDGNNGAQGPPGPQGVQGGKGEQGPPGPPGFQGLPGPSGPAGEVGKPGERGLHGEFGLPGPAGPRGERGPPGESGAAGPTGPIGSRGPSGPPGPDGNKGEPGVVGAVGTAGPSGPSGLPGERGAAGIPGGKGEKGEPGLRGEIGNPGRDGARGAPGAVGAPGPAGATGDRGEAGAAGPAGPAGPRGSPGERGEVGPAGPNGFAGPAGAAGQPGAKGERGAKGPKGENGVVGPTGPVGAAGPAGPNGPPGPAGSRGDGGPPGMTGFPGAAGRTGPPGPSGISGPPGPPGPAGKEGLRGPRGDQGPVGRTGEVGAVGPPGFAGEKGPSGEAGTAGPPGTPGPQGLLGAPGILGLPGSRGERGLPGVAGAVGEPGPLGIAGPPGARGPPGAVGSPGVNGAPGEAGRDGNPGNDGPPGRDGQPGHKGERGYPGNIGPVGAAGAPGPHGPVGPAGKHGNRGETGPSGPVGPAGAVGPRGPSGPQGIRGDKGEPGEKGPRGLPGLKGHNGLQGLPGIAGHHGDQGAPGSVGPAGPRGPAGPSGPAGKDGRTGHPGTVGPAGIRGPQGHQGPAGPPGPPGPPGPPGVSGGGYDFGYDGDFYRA
Experimental: as §1, §2

human fibronectin = molecular target: T2, human fibronectin (human, UniProt P02751 32-2477, limits assumed); assay: as above
T2 construct: Bought, immobilized on plates
T2 sequence (P02751 32-2477 limits assumed): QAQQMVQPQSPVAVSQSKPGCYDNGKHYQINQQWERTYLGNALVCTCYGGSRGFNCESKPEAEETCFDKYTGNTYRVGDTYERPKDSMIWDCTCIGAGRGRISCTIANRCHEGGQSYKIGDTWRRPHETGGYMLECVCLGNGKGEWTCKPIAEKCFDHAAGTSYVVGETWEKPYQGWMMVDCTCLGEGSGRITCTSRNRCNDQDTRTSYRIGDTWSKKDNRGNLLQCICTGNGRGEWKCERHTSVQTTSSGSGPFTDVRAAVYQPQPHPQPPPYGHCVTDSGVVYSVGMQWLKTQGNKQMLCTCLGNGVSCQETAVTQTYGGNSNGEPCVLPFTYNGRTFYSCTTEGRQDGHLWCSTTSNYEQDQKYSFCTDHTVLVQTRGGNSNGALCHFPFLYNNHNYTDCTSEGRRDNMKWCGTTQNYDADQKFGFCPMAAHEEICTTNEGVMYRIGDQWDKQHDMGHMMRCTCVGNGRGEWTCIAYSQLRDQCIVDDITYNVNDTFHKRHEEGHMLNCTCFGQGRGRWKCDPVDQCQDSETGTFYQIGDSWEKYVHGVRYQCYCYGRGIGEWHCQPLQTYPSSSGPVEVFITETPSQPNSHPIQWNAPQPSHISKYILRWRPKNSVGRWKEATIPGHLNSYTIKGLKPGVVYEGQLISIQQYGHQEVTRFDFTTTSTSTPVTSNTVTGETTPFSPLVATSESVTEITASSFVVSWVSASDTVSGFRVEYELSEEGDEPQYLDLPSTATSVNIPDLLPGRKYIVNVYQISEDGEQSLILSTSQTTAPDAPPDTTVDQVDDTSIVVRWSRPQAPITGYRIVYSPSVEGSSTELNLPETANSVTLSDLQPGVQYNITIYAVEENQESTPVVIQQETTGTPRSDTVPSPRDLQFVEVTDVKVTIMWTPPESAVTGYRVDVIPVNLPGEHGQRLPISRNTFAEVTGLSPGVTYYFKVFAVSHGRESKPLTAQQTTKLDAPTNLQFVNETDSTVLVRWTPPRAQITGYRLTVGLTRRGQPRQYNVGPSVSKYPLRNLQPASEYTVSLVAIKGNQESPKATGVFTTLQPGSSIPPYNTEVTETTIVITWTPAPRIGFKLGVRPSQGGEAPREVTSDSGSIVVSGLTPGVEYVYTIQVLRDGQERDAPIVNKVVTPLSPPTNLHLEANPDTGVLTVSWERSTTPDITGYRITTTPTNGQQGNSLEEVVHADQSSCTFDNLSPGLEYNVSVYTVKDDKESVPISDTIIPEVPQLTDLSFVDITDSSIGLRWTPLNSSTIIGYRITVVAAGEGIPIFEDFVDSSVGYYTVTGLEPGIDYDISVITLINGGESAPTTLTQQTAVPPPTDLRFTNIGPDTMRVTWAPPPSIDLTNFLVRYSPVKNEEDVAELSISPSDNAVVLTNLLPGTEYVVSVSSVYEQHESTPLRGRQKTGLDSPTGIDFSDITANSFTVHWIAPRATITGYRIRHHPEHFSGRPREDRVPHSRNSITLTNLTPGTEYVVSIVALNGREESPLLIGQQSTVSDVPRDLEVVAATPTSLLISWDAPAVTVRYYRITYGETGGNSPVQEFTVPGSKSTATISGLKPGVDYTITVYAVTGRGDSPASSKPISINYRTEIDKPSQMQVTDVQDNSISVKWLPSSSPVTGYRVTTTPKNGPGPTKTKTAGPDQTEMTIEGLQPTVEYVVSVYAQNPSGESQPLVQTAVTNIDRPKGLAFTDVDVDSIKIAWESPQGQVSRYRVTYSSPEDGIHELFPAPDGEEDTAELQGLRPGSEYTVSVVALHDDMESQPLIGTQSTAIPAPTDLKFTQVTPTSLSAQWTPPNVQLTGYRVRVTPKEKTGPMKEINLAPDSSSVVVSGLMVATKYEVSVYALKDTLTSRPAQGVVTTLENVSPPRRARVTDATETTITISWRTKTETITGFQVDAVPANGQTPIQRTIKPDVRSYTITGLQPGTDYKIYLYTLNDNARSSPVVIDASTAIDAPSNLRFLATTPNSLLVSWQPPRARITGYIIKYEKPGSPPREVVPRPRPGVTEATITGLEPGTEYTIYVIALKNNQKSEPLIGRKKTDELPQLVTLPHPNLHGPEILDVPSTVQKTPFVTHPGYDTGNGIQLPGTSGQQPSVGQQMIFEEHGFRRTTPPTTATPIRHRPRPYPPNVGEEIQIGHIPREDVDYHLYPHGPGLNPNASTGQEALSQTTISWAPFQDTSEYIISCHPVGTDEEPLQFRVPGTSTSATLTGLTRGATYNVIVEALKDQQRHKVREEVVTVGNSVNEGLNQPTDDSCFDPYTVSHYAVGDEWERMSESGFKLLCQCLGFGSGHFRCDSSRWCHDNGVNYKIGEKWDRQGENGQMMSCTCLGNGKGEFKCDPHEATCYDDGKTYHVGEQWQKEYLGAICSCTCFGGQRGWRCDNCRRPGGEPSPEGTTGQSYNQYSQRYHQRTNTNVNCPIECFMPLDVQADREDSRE
Experimental: as §1, §2

BSA (bovine), sequence (P02769 25-607 limits assumed): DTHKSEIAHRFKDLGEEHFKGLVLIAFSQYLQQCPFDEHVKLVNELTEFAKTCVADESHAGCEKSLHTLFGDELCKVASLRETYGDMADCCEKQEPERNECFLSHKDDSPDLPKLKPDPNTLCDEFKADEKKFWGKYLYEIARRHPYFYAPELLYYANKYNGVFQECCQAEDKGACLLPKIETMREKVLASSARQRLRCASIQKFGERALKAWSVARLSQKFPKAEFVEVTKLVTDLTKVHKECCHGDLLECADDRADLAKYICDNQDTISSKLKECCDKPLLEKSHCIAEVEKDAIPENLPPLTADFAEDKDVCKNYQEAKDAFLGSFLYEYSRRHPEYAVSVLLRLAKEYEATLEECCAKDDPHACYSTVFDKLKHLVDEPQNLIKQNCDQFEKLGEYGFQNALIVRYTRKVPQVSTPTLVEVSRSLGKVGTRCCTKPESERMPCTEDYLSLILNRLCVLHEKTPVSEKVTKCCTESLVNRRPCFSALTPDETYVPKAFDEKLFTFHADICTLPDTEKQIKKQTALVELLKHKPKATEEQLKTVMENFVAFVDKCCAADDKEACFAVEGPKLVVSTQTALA

B1: non-conjugated horseradish peroxidase (enzyme, UniProt P00433 31-338, looked up)
chain: QLTPTFYDNSCPNVSNIVRDTIVNELRSDPRIAASILRLHFHDCFVNGCDASILLDNTTSFRTEKDAFGNANSARGFPVIDRMKAAVESACPRTVSCADLLTIAAQQSVTLAGGPSWRVPLGRRDSLQAFLDLANANLPAPFFTLPQLKDSFRNVGLNRSSDLVALSGGHTFGKNQCRFIMDRLYNFSNTGLPDPTLNTTYLQTLRGLCPLNGNLSALVDFDLRTPTIFDNKYYVNLEEQKGLIQSDQELFSSPNATDTIPLVRSFANSTQTFFNAFVEAMDRMGNITPLTGTQGQIRLNCRVVNSNS
notes: Negative control; also called HRPO; HRPO (negative control)
OD492 (BSA (bovine)): 0.028 OD492
OD492 (human laminin): 0.038 OD492
OD492 (human collagen type I): 0.049 OD492
OD492 (human fibronectin): 0.038 OD492
